Drawing on article PMC7547225, this text covers stoichiometry N for one substance.

The test has as its target bacterially produced mm PCDH15 EC9-MAD12 (Mus musculus). The experiment in a line: SAXS.

As to “bacterially produced mm PCDH15 EC9-MAD12 (domain or fragment)”, the stoichiometry N (commonly a count of units in the complex or per binding partner) worked out at 2.
